From patent publication US20020064528A1 (published 2002)

Tests used:
[1] = target: KDR expressed on the surface of HUVEC (human, UniProt P35968 20-1356); assay: cell-based or functional assay
[2] = target: T1, soluble fusion protein KDR-AP (human, UniProt P35968 20-764); assay: direct binding ELISA on KDR-coated plate, detected by anti-E tag antibody-HRP
T1 construct: extracellular domain; Expressed in NIH 3T3 cells; also called KDR-alkaline phosphatase fusion protein; immobilized KDR; not shown: human placental alkaline phosphatase (AP) of the vector AP-Tag
T1 sequence (P35968 20-764): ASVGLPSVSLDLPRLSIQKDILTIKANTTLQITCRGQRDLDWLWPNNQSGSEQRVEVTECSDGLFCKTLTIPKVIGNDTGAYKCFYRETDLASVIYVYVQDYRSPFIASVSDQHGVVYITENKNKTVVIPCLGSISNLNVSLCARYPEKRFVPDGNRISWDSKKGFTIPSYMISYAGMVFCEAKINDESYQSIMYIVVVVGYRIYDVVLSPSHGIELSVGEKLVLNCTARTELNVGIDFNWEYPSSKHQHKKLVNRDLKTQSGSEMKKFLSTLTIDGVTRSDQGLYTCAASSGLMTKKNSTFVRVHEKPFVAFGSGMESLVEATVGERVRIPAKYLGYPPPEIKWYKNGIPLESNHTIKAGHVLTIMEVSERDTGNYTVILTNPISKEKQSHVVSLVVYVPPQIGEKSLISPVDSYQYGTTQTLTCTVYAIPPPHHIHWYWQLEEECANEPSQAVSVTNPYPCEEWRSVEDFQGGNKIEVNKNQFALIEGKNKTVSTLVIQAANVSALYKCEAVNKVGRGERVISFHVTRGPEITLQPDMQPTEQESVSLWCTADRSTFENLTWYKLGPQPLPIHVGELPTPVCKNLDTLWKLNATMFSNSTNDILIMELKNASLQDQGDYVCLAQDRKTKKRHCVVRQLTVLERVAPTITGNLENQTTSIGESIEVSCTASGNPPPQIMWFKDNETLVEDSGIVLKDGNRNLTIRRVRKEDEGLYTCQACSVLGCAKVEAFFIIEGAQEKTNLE

[3] = target: T1, soluble fusion protein KDR-AP; assay: BIAcore, KDR-AP immobilized (Table 2)
Procedure: Sensorgrams were obtained at each concentration and were evaluated using a program, BIA Evaluation 2.0, to determine the rate constants kon and koff. Kd was calculated as the ratio of rate constants koff/kon.
*All rates are determined by surface plasmon resonance using BIAcore system and are mean of at least three separate determinations.

KDR expressed on the surface of HUVEC, sequence (P35968 20-1356): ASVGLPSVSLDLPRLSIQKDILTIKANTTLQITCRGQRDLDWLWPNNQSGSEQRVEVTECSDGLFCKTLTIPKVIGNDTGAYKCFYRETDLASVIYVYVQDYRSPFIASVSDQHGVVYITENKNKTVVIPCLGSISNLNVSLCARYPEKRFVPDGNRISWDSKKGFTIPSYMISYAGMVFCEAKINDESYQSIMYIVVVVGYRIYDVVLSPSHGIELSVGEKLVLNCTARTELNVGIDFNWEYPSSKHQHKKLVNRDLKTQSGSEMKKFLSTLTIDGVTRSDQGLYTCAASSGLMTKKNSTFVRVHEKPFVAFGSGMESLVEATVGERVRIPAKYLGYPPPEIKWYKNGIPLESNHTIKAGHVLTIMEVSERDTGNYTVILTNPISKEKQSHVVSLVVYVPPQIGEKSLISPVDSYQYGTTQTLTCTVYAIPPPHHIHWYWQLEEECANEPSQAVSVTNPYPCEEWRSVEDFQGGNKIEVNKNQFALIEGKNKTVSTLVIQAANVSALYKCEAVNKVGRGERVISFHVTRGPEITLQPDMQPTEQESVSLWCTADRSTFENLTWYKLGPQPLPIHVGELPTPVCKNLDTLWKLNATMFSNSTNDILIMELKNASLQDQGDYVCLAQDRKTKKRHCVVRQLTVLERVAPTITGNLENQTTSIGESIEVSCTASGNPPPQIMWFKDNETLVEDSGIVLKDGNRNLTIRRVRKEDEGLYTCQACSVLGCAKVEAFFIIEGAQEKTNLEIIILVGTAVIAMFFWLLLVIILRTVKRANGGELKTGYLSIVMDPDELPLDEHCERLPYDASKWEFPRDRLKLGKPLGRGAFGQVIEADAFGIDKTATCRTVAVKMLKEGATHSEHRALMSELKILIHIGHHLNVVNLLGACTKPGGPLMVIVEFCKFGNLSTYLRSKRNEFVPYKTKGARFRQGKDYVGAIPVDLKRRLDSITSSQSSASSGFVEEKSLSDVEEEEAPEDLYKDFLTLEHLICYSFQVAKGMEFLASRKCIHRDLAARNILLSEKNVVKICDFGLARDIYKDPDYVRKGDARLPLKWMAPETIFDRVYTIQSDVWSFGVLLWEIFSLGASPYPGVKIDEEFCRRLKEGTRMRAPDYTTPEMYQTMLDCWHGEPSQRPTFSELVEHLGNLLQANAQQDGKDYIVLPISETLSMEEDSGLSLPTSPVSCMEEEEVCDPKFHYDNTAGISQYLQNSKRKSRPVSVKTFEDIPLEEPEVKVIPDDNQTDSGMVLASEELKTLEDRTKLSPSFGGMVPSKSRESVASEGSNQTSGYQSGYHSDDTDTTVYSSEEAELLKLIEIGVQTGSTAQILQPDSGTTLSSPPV

B1: scFv p1C11 (scFv)
chain: QVKLQQSGAELVGSGASVKLSCTTSGFNIKDFYMHWVKQRPEQGLEWIGWIDPENGDSDYAPKFQGKATMTADSSSNTAYLQLSSLTSEDTAVYYCNAYYGDYEGYWGQGTTVTVSSGGGGSGGGGSGGGGSDIELTQSPAIMSASPGEKVTITCSASSSVSYMHWFQQKPGTSPKLWIYSTSNLASGVPARFSGSGSGTSYSLTISRMEAEDAATYYCQQRSSYPFTFGSGTKLEIK
- EC50, antibody concentration that inhibited 50% of VEGF-stimulated mitogenesis of HUVEC ([3H]-TdR incorporation) [1]: ~5 nM
- EC50 (read off the curve) [2]: ~0.8 nM

B2: chimeric anti-KDR antibody c-p1C11 (antibody, V domains shown)
VH: QVKLQQSGAELVGSGASVKLSCTTSGFNIKDFYMHWVKQRPEQGLEWIGWIDPENGDSDYAPKFQGKATMTADSSSNTAYLQLSSLTSEDTAVYYCNAYYGDYEGYWGQGTTVTVSS
VL: DIELTQSPAIMSASPGEKVTITCSASSSVSYMHWFQQKPGTSPKLWIYSTSNLASGVPARFSGSGSGTSYSLTISRMEAEDAATYYCQQRSSYPFTFGSGTKLEIK
notes: Bivalent chimeric IgG1/kappa with the mouse variable domains of p1C11; expressed in COS cells and purified on Protein G. The leader peptide added for secretion is not part of the mature protein; also called Chimeric-p1C11; c-p1C11 IgG
- fold higher affinity than the parent scFv [3]: ~2.5 fold
